# Laboratory results: patent publication US20110312897
# System: C-terminally 6xHIS tagged, full-length recombinant histone H3
row,Substance,"H3 cleavage assay with pre-activated enzyme, immunoblot with HIS and H3.cs1 antibodies"
1,recombinant Cathepsin B (R&D Systems Cat No. BAF965),Cathepsin B cleaves rH3 with a distinct pattern from Cathepsins K or L and does not significantly produce the H3.cs1 epitope
2,recombinant Cathepsin K (Calbiochem Cat. No. 342001),Cathepsin K produces a similar pattern to Cathepsin L under these assay conditions
